Results on four molecules are retold here after paper PMC8366450, “Human CPPED1 belongs to calcineurin‐like metallophosphoesterase superfamily and dephosphorylates PI3K‐AKT pathway component PAK4” (Journal of Cellular and Molecular Medicine, 2021).

Sequences and labels used below:
B1: Cell division cycle associated 3 (natural protein, human, UniProt Q99618 1-268, looked up)
chain: MGSAKSVPVTPARPPPHNKHLARVADPRSPSAGILRTPIQVESSPQPGLPAGEQLEGLKHAQDSDPRSPTLGIARTPMKTSSGDPPSPLVKQLSEVFETEDSKSNLPPEPVLPPEAPLSSELDLPLGTQLSVEEQMPPWNQTEFPSKQVFSKEEARQPTETPVASQSSDKPSRDPETPRSSGSMRNRWKPNSSKVLGRSPLTILQDDNSPGTLTLRQGKRPSPLSENVSELKEGAILGTGRLLKTGGRAWEQGQDHDKENQHFPLVES
notes: Cell division cycle associated 3, human, as on the HuProt v3.1 array; also called CDCA3; source: S. cerevisiae, purified (GST tag); on bought array: HuProt v3.1, Cambridge Protein Arrays
B2: CRK proto-oncogene, adaptor protein (natural protein, human, UniProt P46108 1-304, looked up)
chain: MAGNFDSEERSSWYWGRLSRQEAVALLQGQRHGVFLVRDSSTSPGDYVLSVSENSRVSHYIINSSGPRPPVPPSPAQPPPGVSPSRLRIGDQEFDSLPALLEFYKIHYLDTTTLIEPVSRSRQGSGVILRQEEAEYVRALFDFNGNDEEDLPFKKGDILRIRDKPEEQWWNAEDSEGKRGMIPVPYVEKYRPASASVSALIGGNQEGSHPQPLGGPEPGPYAQPSVNTPLPNLQNGPIYARVIQKRVPNAYDKTALALEVGELVKVTKINVSGQWEGECNGKRGHFPFTHVRLLDQQNPDEDFS
notes: CRK proto-oncogene, adaptor protein, human, as on the HuProt v3.1 array; source: S. cerevisiae, purified (GST tag); on bought array: HuProt v3.1, Cambridge Protein Arrays
B3: Interferon-stimulated exonuclease gene 20 (enzyme)
chain: not shown
notes: Interferon-stimulated exonuclease gene 20, human, as on the HuProt v3.1 array; also called ISG20; source: S. cerevisiae, purified (GST tag); on bought array: HuProt v3.1, Cambridge Protein Arrays
B4: HIV-1 Tat interactive protein 2 (natural protein, human, UniProt Q9BUP3 1-242, looked up)
chain: MAETEALSKLREDFRMQNKSVFILGASGETGRVLLKEILEQGLFSKVTLIGRRKLTFDEEAYKNVNQEVVDFEKLDDYASAFQGHDVGFCCLGTTRGKAGAEGFVRVDRDYVLKSAELAKAGGCKHFNLLSSKGADKSSNFLYLQVKGEVEAKVEELKFDRYSVFRPGVLLCDRQESRPGEWLVRKFFGSLPDSWASGHSVPVVTVVRAMLNNVVRPRDKQMELLENKAIHDLGKAHGSLKP
notes: also called HTATIP2; source: S. cerevisiae, purified (GST tag); on bought array: HuProt v3.1, Cambridge Protein Arrays

The target in the assay is T1, human recombinant CPPED1 with N-terminal His-V5 dual tag (human, UniProt Q9BRF8 1-314).
T1 construct: Calcineurin-like phosphoesterase domain-containing protein 1 (CPPED1), human; cloned into PSF-OXB20-NH2-6HIS-V5-TEV; 38.9 kDa including the His-V5 dual tag; The vector name holds a TEV site; no cleavage is told; also called calcineurin-like phosphoesterase domain-containing protein 1; purified recombinant CPPED1; not shown: His6, N-terminal, kept; V5, N-terminal, kept
The experiment in a line: peptide or protein array; HuProt v3.1 human proteome microarray; >20 000 human recombinant proteins immobilised on the array; purified His-V5-CPPED1 applied. The note with it: both partners purified.
Consider B1, for which the binding result is given as “binds”.
Under B2 stands “binds”; under B3, “binds”; under B4, “binds”.
